From EP3620472A1 (Sanofi, dated 2020)
Where “and” joins values, the source holds several entries; their conditions need not be identical. Equal entries are not always repeated. Where two headings read alike, the source gives them in different places.

What was measured:
[1] = biological target: T1, glycosylated human PAI-1 (active form) (human, UniProt P05121 24-402, glycosylated (sites not given)); test: cell-based or functional assay
[2] = biological target: T2, human PAI-1 (human, UniProt P05121 24-402); test: Biacore supernatant screen, graded off-rate
T2 construct: serpin; also called hPAI-1

[3] = biological target: T1, glycosylated human PAI-1 (active form); test: cell-based or functional assay; remark: listed apart in the source
[4] = biological target: T1, glycosylated human PAI-1 (active form); test: cell-based or functional assay; remark: listed apart in the source
[5] = biological target: T1, glycosylated human PAI-1 (active form); test: cell-based or functional assay; remark: listed apart in the source
[6] = biological target: T2, human PAI-1; test: cell-based or functional assay
[7] = biological target: T3, endogenous human PAI-1 (human, UniProt P05121 24-402); test: cell-based or functional assay
[8] = biological target: T4, cynomolgus PAI-1 (cynomolgus (Macaca fascicularis), UniProt P05121 24-402 (human entry)); test: cell-based or functional assay
[9] = biological target: T3, endogenous human PAI-1; test: cell-based or functional assay; remark: listed apart in the source
[10] = biological target: T4, cynomolgus PAI-1; test: value used to set up the HDX MS samples
[11] = biological target: T3, endogenous human PAI-1; test: cell-based or functional assay; remark: listed apart in the source
[12] = biological target: T1, glycosylated human PAI-1 (active form); test: Biacore 2000, mAb captured, single-cycle kinetics

B1: A44 (antibody, mouse IgG1, V domains shown)
VH: EMQLQESGPSLVKPSQTLSLTCSVTGDSMTNGYWNWIRKFPGNKLEYMGYITYSGSTYYNPSLKGRISITRNTSKNQYYLQLSSVTTEDTATYYCARWHYGSPYYFDYWGQGTTLTVSS
VL: DIKMTQSPSSMYASLGERVTITCKASQDINSYLSWLQQKPGKSPKTLIYRANRSVDGVPSRFSGSGSGQDYSLTISSLEYEDMGIYYCLQYDEFPPTFGGGTKLEIKR
plasmin generation, IC50abs [1]: 3320 pM
plasmin generation, Imax [1]: 97%

B2: A71 (antibody, mouse IgG1, V domains shown)
VH: QVQLQQSGAELMKPGASVKISCKATGFTFSTYWIEWIKQRPGHGLDWIGEILPGSGNTNYNEKFKGKATFTADTSSNTVYMQLSSLTSEDSAVYYCARGGLYYNLDSWGQGTTLTVSS
VL: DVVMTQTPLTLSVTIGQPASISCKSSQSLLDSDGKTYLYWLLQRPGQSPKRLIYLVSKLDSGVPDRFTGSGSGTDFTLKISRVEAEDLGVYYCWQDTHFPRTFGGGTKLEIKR
plasmin generation, IC50abs [1]: 8610 pM
plasmin generation, Imax [1]: 90%

B3: A105 (antibody, mouse IgG1, V domains shown)
VH: QVQLQQSGAELMKPGASVKISCKATGFTFSIYWIEWVKQRPGLGLEWIGEILPGSGSTNYNEKFKGKATFTADTSSNTAFMQLSSLTSEDSAVYYCARGGLYYDLDYWGQGTILTVSS
VL: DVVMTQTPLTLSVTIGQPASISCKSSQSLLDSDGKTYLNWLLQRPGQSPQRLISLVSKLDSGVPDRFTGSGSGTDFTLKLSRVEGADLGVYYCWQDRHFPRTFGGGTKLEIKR
plasmin generation, IC50abs [1]: 27000 pM
plasmin generation, Imax [1]: 88%

B4: B28 (antibody, mouse IgG2b, V domains shown)
VH: QVQLQQSGAELMKPGASVKISCKATGYTFSISWIEWIKQRPGGLEWIGKILPGSGGANYNEKFKGKATVTADTSSNTVYMQLSSLTSEDSAVYYCARLSTGTRGAFDYWGQGTTLTVSS
VL: DIQLTQSPASLSASVGATVTITCRASENVYSYLAWYQQKQGKSPQLLVYNAKTLAEGVPSRFSGSGSGTQFSLKINYLQPEDFGSYYCQHHYGTPPTFGGGTKVEIKR
plasmin generation, IC50abs [1]: 7280 pM
plasmin generation, Imax [1]: 90%

B5: B109 (antibody)
chain 1: SGQGLDWIGAIYPGNSDTTYNQKFEDKAKLTAVASASTAYMEVSSLTNEDSAVYYCTRGLRRWGAMDYWGQGTSVTVSS
chain 2: DIVMTQSHKFMSTSAGDRVSIPCKASQDVSSAVAWYQQKLGQSPKLLIYSASFRYTGVPDRFTGSGSGTDFTFTISSVQAEDLAVYYCQQHYSSPYTFGGGTNLEIK
koff [2]: ≤ 0.0001 s⁻¹
plasmin generation, IC50abs [1]: 6110 pM
plasmin generation, Imax [1]: 94%
Chromogenic Assays [3]: 0.23 nM

B6: C45 (antibody, mouse IgG2b, V domains shown)
VH: QVQLQQSGVELVRPGTSVKVSCKASGYAFTNYLIEWIKQRPGQGLEWIGVIHPGSGVTNYNEKFKGKAILTADKSSSTAYMQLSSLTSDDSAVYFCARDYYGSSHGLMDYWGQGTSVTVSS
VL: DIKMTQSPSSMYASLGERVTITCKASQDINSYLSWFQQKPGKSPKTLIYRANRLVDGVPSRFSGSGSGQDYSLTISSLEYEDMGIYYCLQYDEFPRTFGGGTKLEIK
plasmin generation, IC50abs [1]: 6500 pM
plasmin generation, Imax [1]: 97%

B7: E16 (antibody, mouse IgG1, V domains shown)
VH: EVKLVESGGGLVKPGGSLKLSCAASGFTFSNYGMSWVRQTPEKGLGWVASLRTGGNTYYSDSVKGRFTISRDNDRNILYLQMSSLTSEDTAVYYCARGLRHWGYFDVWGAGTTVTVSS
VL: DIVMTQSHKFMSTSVGDRVNITCKASQDVSTAVGWYQQEPGQSPKLLIYSASNRHTGVPDRFTGSGSGTDFTFTISSVQAEDLAVYYCQQHYSSPWTFGGGTKLEIK
plasmin generation, IC50abs [1]: 4740 pM
plasmin generation, Imax [1]: 95%

B8: A44-hv11 (antibody, V domains shown)
VH: QMTLKESGPTLVKPTQTLSLTCSVSGDSMTNGYWNWIRQFPGKALEYMGYITYSGSTYYNPSLKGRITITRDTSKNQYYLTLSSVTTVDTATYYCARWHYGSPYYFDYWGQGTTLTVSS
VL: DIKMTQSPSSLSASVGDRVTITCKASQDINSYLSWLQQKPGKSPKTLIYRAQRSVEGVPSRFSGSGSGQDYSLTISSLQPEDLGIYYCLQYDEFPPTFGGGTKLEIK
notes: constant regions only as pictures; also called A44V11; A44v11
human plasma clot lysis IC50 [4]: 2000 pM
human plasma clot lysis IC50 [5]: 1380 pM
human plasma clot lysis Imax @ 100 nM [5]: 113%
uPA-PAI-1 complex ELISA IC50 [6]: 131 pM
uPA-PAI-1 complex ELISA Y50% [6]: 50.8%
uPA-PAI-1 complex ELISA IC50 [7]: 15.7 pM
uPA-PAI-1 complex ELISA Y50% [7]: 37.5%
Cyno PAI-1 neutralization IC50 [8]: 42.4 pM
Cyno PAI-1 neutralization Y50% [8]: 50.8%
human liver lysate, uPA-PAI-1 ELISA IC50 [9]: 36.5 pM and 50.3 pM and 46.5 pM
human liver lysate, uPA-PAI-1 ELISA IC50, mean [9]: 44.4 pM
Kd [10]: < 50 pM

B9: A44-hv12 (antibody, V domains shown)
VH: QMTLKESGPTLVKPTQTLSLTCSVSGDSMTNGYWNWIRQFPGKALEYMGYITYSGSTYYNPSLKGRITITRDTSKNQYYLTLSSVTTVDTATYYCARWHYGSPYYFDYWGQGTTLTVSS
VL: DIKMTQSPSSLSASVGDRVTITCKASQDINSYLSWLQQKPGKSPKTLIYRAQRSVEGVPSRFSGSGSGQDYSLTISSLQPEDLATYYCLQYDEFPPTFGGGTKLEIK
uPA-PAI-1 complex ELISA IC50 [6]: 114 pM
uPA-PAI-1 complex ELISA Y50% [6]: 53.5%
uPA-PAI-1 complex ELISA IC50 [7]: 3.35 pM
uPA-PAI-1 complex ELISA Y50% [7]: 37.7%
Cyno PAI-1 neutralization IC50 [8]: 26.6 pM
Cyno PAI-1 neutralization Y50% [8]: 53.5%

B10: A44-hv13 (antibody, V domains shown)
VH: QMQLQESGPGLVKPSETLSLTCTVSGDSMTNGYWNWIRQPPGKGLEYMGYITYSGSTYYNPSLKSRITISRDTSKNQYSLKLSSVTAADTAVYYCARWHYGSPYYFDYWGQGTLVTVSS
VL: DIKMTQSPSSLSASVGDRVTITCKASQDINSYLSWLQQKPGKSPKTLIYRAQRSVEGVPSRFSGSGSGQDYSLTISSLQPEDLGIYYCLQYDEFPPTFGGGTKLEIK
uPA-PAI-1 complex ELISA IC50 [6]: 166 pM
uPA-PAI-1 complex ELISA Y50% [6]: 52.8%
uPA-PAI-1 complex ELISA IC50 [7]: 31.1 pM
uPA-PAI-1 complex ELISA Y50% [7]: 61.4%
Cyno PAI-1 neutralization IC50 [8]: 28.1 pM
Cyno PAI-1 neutralization Y50% [8]: 52.8%

B11: A44-hv14 (antibody, V domains shown)
VH: QMQLQESGPGLVKPSETLSLTCTVSGDSMTNGYWNWIRQPPGKGLEYMGYITYSGSTYYNPSLKSRITISRDTSKNQYSLKLSSVTAADTAVYYCARWHYGSPYYFDYWGQGTLVTVSS
VL: DIKMTQSPSSLSASVGDRVTITCKASQDINSYLSWLQQKPGKSPKTLIYRAQRSVEGVPSRFSGSGSGQDYSLTISSLQPEDLATYYCLQYDEFPPTFGGGTKLEIK
uPA-PAI-1 complex ELISA IC50 [6]: 56.3 pM
uPA-PAI-1 complex ELISA Y50% [6]: 52.5%
uPA-PAI-1 complex ELISA IC50 [7]: 58.6 pM
uPA-PAI-1 complex ELISA Y50% [7]: 73.9%
Cyno PAI-1 neutralization IC50 [8]: 28.7 pM
Cyno PAI-1 neutralization Y50% [8]: 52.5%

B12: APG (antibody, V domains shown)
VH: QVKLQESGPELVKPGASVKISCKASGYSFTDYNMNWVKQSKGKSLEWIGIIHPNSGTTTYNQKFKGKATLTVDQSSSTAYLQLNSLTSEDSAVYYCARSKLRFFDYWGQGTTVTVSS
VL: DIKLTQSPSSMYASLGERVTITCKASQDIYSYLSWFQQKPGKSPKTLIYRANRLIDGVPSRFSGSGSGQDYSLTISSLEYEHMGIYYCLQYDEFPFTFGSGTKLEIK
notes: mouse antibody; also called mAPG; mouse APG
human plasma clot lysis IC50 [5]: 2340 pM
human plasma clot lysis Imax @ 100 nM [5]: 123%
human plasma, uPA-PAI-1 ELISA IC50abs [11]: 1810 pM
human plasma, uPA-PAI-1 ELISA Imax [11]: 89.7%
kon [12]: 3.82e+06 M⁻¹ s⁻¹

B13: APGv2 (antibody, V domains shown)
VH: QVQLVQSGSELKKPGASVKVSCKASGYSFTDYNMNWVRQAPGQGLEWIGIIHPNSGTTTYNQKFKGRAVLSVDQSVSTAYLQISSLKAEDTAVYYCARSKLRFFDYWGQGTLVTVSS
VL: DIQLTQSPSSLSASVGDRVTITCKASQDIYSYLSWFQQKPGKAPKTLIYRANRLIDGVPSRFSGSGSGQDYTFTISSLQPEDIATYYCLQYDEFPFTFGQGTKLEIK
notes: humanized; also called APG variant 2
human plasma clot lysis IC50 [5]: 2080 pM
human plasma clot lysis Imax @ 100 nM [5]: 114%
human plasma, uPA-PAI-1 ELISA IC50abs [11]: 962 pM
human plasma, uPA-PAI-1 ELISA Imax [11]: 94.5%
Kd [10]: < 50 pM
kon [12]: 6.58e+06 M⁻¹ s⁻¹

B14: APGv4 (antibody, V domains shown)
VH: QVQLVQSGAEVKKPGASVKVSCKASGYSFTDYNMNWVRQAPGQGLEWIGIIHPNSGTTTYNQKFKGRATLTVDQSTSTAYMELSSLRSEDTAVYYCARSKLRFFDYWGQGTLVTVSS
VL: DIQLTQSPSSLSASVGDRVTITCKASQDIYSYLSWFQQKPGKAPKTLIYRANRLIDGVPSRFSGSGSGQDYTFTISSLQPEDIATYYCLQYDEFPFTFGQGTKLEIK
notes: humanized; also called APG variant 4
human plasma clot lysis IC50 [5]: 2820 pM
human plasma clot lysis Imax @ 100 nM [5]: 116%
human plasma, uPA-PAI-1 ELISA IC50abs [11]: 1280 pM
human plasma, uPA-PAI-1 ELISA Imax [11]: 94.4%
kon [12]: 9.48e+06 M⁻¹ s⁻¹
